Target: the molecule itself
Assay: glycerol density-gradient centrifugation; material partially purified by Mto2-SZZ (IgG beads, TEV cleavage) from mto1[9A1-bonsai]-GFP or mto1Δ lysates, before and after 10-fold concentration; isokinetic glycerol gradient, 2.5 hr or 45 min; quantitative western blotting

B1: Mto2-S (the TEV protease cleavage product of Mto2-SZZ) (natural protein, Schizosaccharomyces pombe, UniProt Q9USP7 1-397, looked up)
chain: MSEHNYQSDREVAEDPFLNYEASANQLSSNSRESTPRGSPWRAGMRSASLMTEPLEDSMYSDNNYLDNGVSFTKDENPLYSPSWPSLADANVNSMKSNNAIQEHKAAKFVSEKSLEKVSTADNNLVLQELENLRERLNQVELQLSERPSSYLGYHNNLSPYRSPNSYPSLLPSTHSPHSPAPLSTMQTALMRLRTYHPSPIILKPVEQAVNHAITLVNTSPSSVVDALCRSLAELCLGLVQEAIDASILSQQESSNSLDLVRHTPPLNYTSSVDSSPQRMASDSYGRPSLHLNDPFPSVDLQSNELSHHNVRTTLFSDDSRFHSKIHTHSTPPSQMYSAASHFRYRSDPSTRHVSNSTNKSSLHPSPTSLRVAHPIIPQRASPASQSFPSLQDTPSP
notes: Mto2, Schizosaccharomyces pombe; source: S. pombe, partially purified (immunoglobulin G beads, TEV protease cleavage), enriched 3,400-fold
binding result: binds

— paper PMC3989768, “Activation of the γ-Tubulin Complex by the Mto1/2 Complex” (Current Biology, 2014)
